Test results published in IntAct's records for PubMed 9537418.

B1: Merlin (Homo sapiens), P35240-3 (parent)
chain: MAGAIASRMSFSSLKRKQPKTFTVRIVTMDAEMEFNCEMKWKGKDLFDLVCRTLGLRETWFFGLQYTIKDTVAWLKMDKKVLDHDVSKEEPVTFHFLAKFYPENAEEELVQEITQHLFFLQVKKQILDEKIYCPPEASVLLASYAVQAKYGDYDPSVHKRGFLAQEELLPKRVINLYQMTPEMWEERITAWYAEHRGRARDEAEMEYLKIAQDLEMYGVNYFAIRNKKGTELLLGVDALGLHIYDPENRLTPKISFPWNEIRNISYSDKEFTIKPLDKKIDVFKFNSSKLRVNKLILQLCIGNHDLFMRRRKADSLEVQQMKAQAREEKARKQMERQRLAREKQMREEAERTRDELERRLLQMKEEATMANEALMRSEETADLLAEKAQITEEEAKLLAQKAAEAEQEMQRIKATAIRTEEEKRLMEQKVLEAEVLALKMAEESERRAKEADQLKQDLQEAREAERRAKQKLLEIATKPTYPPMNPIPAPLPPDIPSFNLIGDSLSFDFKDTDMKRLSMEIEKEKVEYMEKSKHLQEQLNELKTEIEALKLKERETALDILHNENSDRGGSSKHNTIKKPQAQGRRPICI

Variants of: B1
Settings: with sptb2_human SPTBN1, Q01082
sptb2_human SPTBN1, Q01082, sequence (Q01082 whole entry): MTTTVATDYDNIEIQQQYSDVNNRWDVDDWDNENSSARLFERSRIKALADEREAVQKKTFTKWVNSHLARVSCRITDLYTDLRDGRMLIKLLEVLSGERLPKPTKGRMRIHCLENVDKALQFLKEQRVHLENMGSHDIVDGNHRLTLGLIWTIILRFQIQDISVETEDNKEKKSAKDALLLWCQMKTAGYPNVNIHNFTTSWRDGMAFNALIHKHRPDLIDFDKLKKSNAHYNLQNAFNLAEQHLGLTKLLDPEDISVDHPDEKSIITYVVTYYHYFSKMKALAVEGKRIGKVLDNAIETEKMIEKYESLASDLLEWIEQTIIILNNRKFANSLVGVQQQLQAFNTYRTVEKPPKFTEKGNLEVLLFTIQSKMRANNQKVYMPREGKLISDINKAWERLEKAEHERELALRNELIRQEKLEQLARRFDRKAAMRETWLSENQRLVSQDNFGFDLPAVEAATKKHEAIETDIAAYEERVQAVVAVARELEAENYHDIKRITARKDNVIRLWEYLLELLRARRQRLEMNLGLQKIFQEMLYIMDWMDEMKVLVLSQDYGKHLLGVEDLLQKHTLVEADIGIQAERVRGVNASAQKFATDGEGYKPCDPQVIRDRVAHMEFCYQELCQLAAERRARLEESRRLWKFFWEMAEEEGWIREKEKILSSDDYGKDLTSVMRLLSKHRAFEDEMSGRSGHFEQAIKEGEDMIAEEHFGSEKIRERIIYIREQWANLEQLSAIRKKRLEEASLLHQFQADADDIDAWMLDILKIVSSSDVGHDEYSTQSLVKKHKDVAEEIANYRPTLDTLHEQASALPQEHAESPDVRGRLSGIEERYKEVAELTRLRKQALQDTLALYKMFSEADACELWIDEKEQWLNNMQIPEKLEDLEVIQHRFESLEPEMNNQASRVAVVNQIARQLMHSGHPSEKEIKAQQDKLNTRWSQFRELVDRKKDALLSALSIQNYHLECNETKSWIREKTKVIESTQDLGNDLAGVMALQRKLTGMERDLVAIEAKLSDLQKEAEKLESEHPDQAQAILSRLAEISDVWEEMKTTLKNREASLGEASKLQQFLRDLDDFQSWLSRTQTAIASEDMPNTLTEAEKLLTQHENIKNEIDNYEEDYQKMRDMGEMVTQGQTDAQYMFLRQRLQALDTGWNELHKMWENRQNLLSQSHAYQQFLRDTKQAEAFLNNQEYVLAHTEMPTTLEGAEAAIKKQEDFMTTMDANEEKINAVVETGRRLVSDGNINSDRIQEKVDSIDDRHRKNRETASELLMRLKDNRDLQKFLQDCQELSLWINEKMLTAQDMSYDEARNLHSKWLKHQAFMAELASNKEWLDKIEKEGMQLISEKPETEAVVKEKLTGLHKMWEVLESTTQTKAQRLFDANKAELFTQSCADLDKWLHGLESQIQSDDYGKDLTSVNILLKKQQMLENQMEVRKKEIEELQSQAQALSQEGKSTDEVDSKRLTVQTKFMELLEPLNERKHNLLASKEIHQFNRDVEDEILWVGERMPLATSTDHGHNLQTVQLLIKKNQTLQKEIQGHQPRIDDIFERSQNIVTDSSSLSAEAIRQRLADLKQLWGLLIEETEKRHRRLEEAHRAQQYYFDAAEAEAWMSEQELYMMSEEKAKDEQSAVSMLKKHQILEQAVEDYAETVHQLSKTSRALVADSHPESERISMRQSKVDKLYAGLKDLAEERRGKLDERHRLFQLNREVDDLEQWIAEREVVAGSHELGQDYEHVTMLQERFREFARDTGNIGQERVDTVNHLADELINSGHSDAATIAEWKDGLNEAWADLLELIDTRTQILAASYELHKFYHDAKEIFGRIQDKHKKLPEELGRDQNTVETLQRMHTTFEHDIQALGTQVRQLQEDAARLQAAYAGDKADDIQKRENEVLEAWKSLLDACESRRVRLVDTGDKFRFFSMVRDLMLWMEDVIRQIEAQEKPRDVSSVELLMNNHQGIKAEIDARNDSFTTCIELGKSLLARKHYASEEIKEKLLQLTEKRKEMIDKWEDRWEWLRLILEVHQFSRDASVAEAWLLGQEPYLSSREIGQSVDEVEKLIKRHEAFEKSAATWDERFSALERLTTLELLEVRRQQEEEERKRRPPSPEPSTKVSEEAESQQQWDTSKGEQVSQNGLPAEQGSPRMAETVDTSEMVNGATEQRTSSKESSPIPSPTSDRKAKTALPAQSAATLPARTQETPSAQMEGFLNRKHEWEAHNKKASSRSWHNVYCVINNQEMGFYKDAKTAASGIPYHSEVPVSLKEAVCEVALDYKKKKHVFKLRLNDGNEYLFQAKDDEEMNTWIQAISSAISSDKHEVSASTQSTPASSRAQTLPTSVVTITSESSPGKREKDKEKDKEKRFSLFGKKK

| effect of a mutation on the interaction | Variant |
| --- | --- |
| disrupting interaction strength | Q538P |
| decreasing interaction strength | L535P |
| decreasing interaction strength | L360P |
